Molecular target: T1, human CD19 (human, UniProt P15391 20-556)
T1 construct: whole, on cells; also called CD19 on Raji cells; CD19 on Ramos cells
T1 sequence (looked up): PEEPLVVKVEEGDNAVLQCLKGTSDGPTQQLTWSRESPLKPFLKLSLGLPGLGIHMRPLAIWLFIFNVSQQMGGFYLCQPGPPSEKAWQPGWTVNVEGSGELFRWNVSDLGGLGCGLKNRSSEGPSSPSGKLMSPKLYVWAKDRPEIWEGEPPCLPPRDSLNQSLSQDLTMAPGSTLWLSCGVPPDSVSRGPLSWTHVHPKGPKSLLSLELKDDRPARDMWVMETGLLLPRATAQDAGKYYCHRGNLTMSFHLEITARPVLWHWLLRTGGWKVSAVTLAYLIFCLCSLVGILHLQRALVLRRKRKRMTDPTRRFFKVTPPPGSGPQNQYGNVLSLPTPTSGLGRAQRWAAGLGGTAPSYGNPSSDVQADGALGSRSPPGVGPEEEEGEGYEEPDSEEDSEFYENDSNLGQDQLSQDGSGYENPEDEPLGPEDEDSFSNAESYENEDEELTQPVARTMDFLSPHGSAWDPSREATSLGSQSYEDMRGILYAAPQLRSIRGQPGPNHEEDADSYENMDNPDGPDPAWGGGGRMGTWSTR
Experiment: flow cytometry (FACS) on CD19-expressing Raji cells, 0.001 µg/ml construct, FITC goat anti-human IgG.Fc detection
Protocol: The assay was performed by incubating 1×10⁶CD19-expressing Raji cells with 0.001 μg/ml of each construct in PBS, 1% BSA on ice for 30 minutes, using anti-CD19 antibody (RB4v1.2), (scFv α CD19)-Fc-MBM-1 X 2 DOTA bundles and (scFv α CD19)-Fc-MBM-3 X 2 DOTA bundles as positive controls. The anti-HER2 antibody (trastuzumab) was used as a negative control. The staining of cells was analyzed by FACS (FACSCanto II; BD Biosciences) using FITC-conjugated goat anti-human IgG.Fc (diluted 1:200 in PBS/BSA) (Caltag, Buckingham, UK) at 4° C. for 20 minutes in the dark.

B1: stabilized (scFv α CD19)-Fc-MBM-3 X 2 DOTA bundles (Fc fusion)
chain: EIVLTQSPAIMSASPGERVTMTCSASSGVNYMHWYQQKPGTSPRRWIYDTSKLASGVPARFSGSGSGTDYSLTISSMEPEDAATYYCHQRGSYTFGGGTKLEIKRGSTSGSGKPGSGEGSTKGQVQLVQPGAEVVKPGASVKLSCKTSGYTFTSNWMHWVKQAPGQGLEWIGEIDPSDSYTNYNQNFQGKAKLTVDKSTSTAYMEVSSLRSDDTAVYYCARGSNPYYYAMDYWGQGTSVTVSSGGGASDKTHTCPPCPAPELLGGPSVFLFPPKPKDTLMISRTPEVTCVVVDVSHEDPEVKFNWYVDGVEVHNAKTKPREEQYNSTYRVVSVLTVLHQDWLNGKDYKCKVSNKALPAPIEKTISKAKGQPREPQVYTLPPSRDELTRNQVSLTCLVKGFYPSDIAVEWESNGQPENNYKTTPPVLDSDGSFFLYSKLTVDKSRWQQGNVFSCSVMHEALHNHYTQKSLSLSPGGGGGCGGHA
modifications: cysteine residue of the C-terminal metal binding motif GCGGHA conjugated with one Mal-Peptide 2-DOTA bundle (three DOTA on a maleimido-ethyl peptide core)
notes: also called recombinant 2-chain (scFv α CD19)-Fc-MBM-3 X 2 DOTA bundles; 2-chain (VL-VH scFv α CD19)-Fc-MBM-3 conjugated with two DOTA bundles
- binding result: binds
